# From patent US20240058465A1 (SUTRO BIOPHARMA, published 2024)
# Changes are numbered by the printed parent chain.
# B1: SRP2196-A08 (antibody, V domains shown)
# VH: EVQLVESGGGLVQPGGSLRLSCAASGFNITGYYIHWVRQAPGKGLEWVGYISPNSGSTYKADSVKGRFTISADTSRNTAYLQMNSLRAEDTAVYYCARDSRRYVRSWDYWGQGTLVTVSS
# VL: QAVVTQESALTTSPGETVTLTCRSSTGAVTTSNYANWVQEKPDHLFTGLIGGTNKRAPGVPARFSGSLIGDKAALTITGAQTEDEAIYFCALWYSNLWVFGGGTKLTVL
# notes: His/FLAG-tagged IgG1
# B2: SRP2196-B03 (antibody, V domains shown)
# VH: B1 VH with V12A, S57A, Y59H, K60Y, R76K, S106P, W107F
# VL: B1 VL
# notes: His/FLAG-tagged IgG1
# B3: SRP2196-B04 (antibody, V domains shown)
# VH: B1 VH with G31E, S57A, K60Q, R76K, S106G
# VL: B1 VL
# notes: His/FLAG-tagged IgG1
# B4: SRP2196-B06 (antibody, V domains shown)
# VH: B1 VH with Y50Q, K60S, R76K, R105L
# VL: B1 VL
# notes: His/FLAG-tagged IgG1
# B5: SRP2196-C01 (antibody, V domains shown)
# VH: B1 VH with T30I, Y50S, S52T, N54L, S57A, Y59S, R76K, V104I
# VL: B1 VL
# notes: His/FLAG-tagged IgG1
# B6: SRP2196-B11 (antibody, V domains shown)
# VH: B1 VH with K43R, Y50Q, S57Y, K60Y, R76K, V104I
# VL: B1 VL
# notes: His/FLAG-tagged IgG1
# B7: SRP2196-B09 (antibody, V domains shown)
# VH: B1 VH with G15E, G31E, K60Y, R76K
# VL: B1 VL
# notes: His/FLAG-tagged IgG1; also called Antibody 160
# B8: SRP2196-B10 (antibody, V domains shown)
# VH: B1 VH with Y50S, S52T, N54L, S57A, Y59S, R76K, V104I
# VL: B1 VL
# notes: His/FLAG-tagged IgG1; also called Antibody 167
# B9: SRP2196-B02 (antibody, V domains shown)
# VH: B1 VH with G31Q, S57Q, K60D, R76K
# VL: B1 VL
# notes: His/FLAG-tagged IgG1
# B10: SRP2196-B01 (antibody, V domains shown)
# VH: B1 VH with Y50Q, S57Y, K60Y, R76K, A79T
# VL: B1 VL
# notes: His/FLAG-tagged IgG1
# B11: SRP2196-A10 (antibody, V domains shown)
# VH: B1 VH with S57A, Y59H, K60Y, T74I, R76K, Y94H
# VL: B1 VL
# notes: His/FLAG-tagged IgG1
# B12: SRP2196-A11 (antibody, V domains shown)
# VH: B1 VH with Y50Q, S57T, K60D, R76K, S106G
# VL: B1 VL
# notes: His/FLAG-tagged IgG1
# Target: T1, human ROR1 Frizzled domain (hROR1-Fz) (human, UniProt Q01973 165-305)
# T1 construct: Acro Biosystems, made in HEK293
# Assay: SPR Biacore, IgG on anti-Fc, ROR1-Fz analyte
# Experimental: Anti-Fc polyclonal antibodies were immobilized onto a CMS chip (GE Life Sciences) using amine coupling chemistry (from Amine Coupling Kit, GE Life Sciences). The immobilization steps were carried out at a flow rate of 25 μL/min in 1×HBS-EP+buffer (GE Life Sciences; 10× Stock diluted before use). The sensor surfaces were activated for 7 min with a mixture of NHS (0.05 M) and EDC (0.2 M). The Anti-Fc antibodies were injected over all 4 flow cells at a concentration of 25 ug/ml in 10 mM sodium acetate, pH 4.5, for 7 min. Ethanolamine (1 M, pH 8.5) was injected for 7 min to block any remaining activated groups.
# Off-rate and kinetic binding experiments were performed at 25° C. using 1×HBS-EP+buffer. Test and control antibodies were injected over the anti-Fc surface at concentrations of 5-10 μg/mL for 12 seconds at a flow rate of 10 μL/min on flow cells 2, 3 and 4, followed by a buffer wash for 30 seconds at the same flow rate. […] After capturing ligand (antibody) on the anti-Fc surface, the analyte (hROR1, Fz or Kr domains, Acro Biosystems, Delaware) was bound for 180 seconds, followed by a 600 second dissociation phase at a flow rate of 50 μL/min. Between each ligand capture and analyte binding cycle, regeneration was carried out using 2 injections of 10 mM Glycine pH 2.0 for 30 seconds at 30 μL/min, followed by a 30 second buffer wash step.
Binder,Kd [nM],koff [s⁻¹],kon [M⁻¹ s⁻¹]
B1,4.26,0.00078,183000
B2,7.64,0.000945,124000
B3,2.78,0.000352,127000
B4,2.98,0.000423,142000
B5,3.66,0.000457,125000
B6,4.36,0.000597,137000
B7,3.28,0.000427,130000
B8,2.61,0.000334,128000
B9,1.39,0.000227,163000
B10,3.06,0.000401,131000
B11,2.78,0.000479,172000
B12,4.16,0.000792,191000

# Target: T2, human ROR1 (hROR1) (human, UniProt Q01973 30-937)
# T2 construct: On HCT116-hROR1 transfectants, Mino cells or Ntera-2 cells, as the assay of each row says; also called receptor tyrosine kinase like orphan receptor 1
# Assay: flow cytometry, HCT116-hROR1 cells
# Experimental: A mix of ROR1 positive and negative cells was prepared as follows. Ror1 negative cells were washed 2× in PBS then incubated in PBS containing 1 nM CellTrace™ Oregon Green488® (Life Technologies) at 37° C. for 30 minutes. Cells were then washed 2× with RPMI w/10% fetal calf serum (or FCS), washed 2× with FACS buffer (PBS+0.5% BSA), suspended thoroughly in ice-cold FACS buffer at a final concentration of 4×10^6 cells/ml and kept on ice. ROR1 positive cells were washed 2× in PBS and suspended with ice-cold FACS buffer at 4×10^6 cells/ml. ROR1 positive and negative cells were then mixed to obtain a 1-1 cell suspension and seeded at 50 μl per well on 96 well polypropylene plates. 50 μl of 6-12 point dilutions of anti-ROR1 variants starting from concentrations of ˜100-200 nM antibody was dispensed using BioMekFX (Beckman Coulter) into each well. Cells were then incubated on ice for 1 hr, washed with FACS buffer and incubated for 1 hr on ice with 50 μl FACS buffer containing 2.5 μg/ml Alexa647-conjugated Goat Anti-Human IgG dispensed using BioMekFX (Beckman Coulter). Cells were then washed 2× with FACS buffer and fixed for 10 minutes in 200 μl PBS with 2% PFA prior to fluorescence detection. Samples were acquired using a Beckton Dickinson LSRII FACS. Mean Fluorescence Intensity of ROR1 antibody binding was analyzed using FlowJo® software (Tree Star, Inc.).
Binder,Bmax (MFI),Kd [nM]
B1,13900,0.2
B2,15600,0.6
B3,14400,0.5
B4,14800,0.4
B5,15700,0.3
B6,14700,0.2
B7,15000,0.6
B8,14700,0.3
B9,14900,0.3
B10,15300,0.3
B11,14400,0.3
B12,14000,< 0.05
